Results on seven molecules are retold here after paper PMC9638919, “DAZL regulates proliferation of human primordial germ cells by direct binding to precursor miRNAs and enhances DICER processing activity”.

For series [1], the target named is T1, GST-DAZL (UniProt Q92904 1-295).
T1 sequence: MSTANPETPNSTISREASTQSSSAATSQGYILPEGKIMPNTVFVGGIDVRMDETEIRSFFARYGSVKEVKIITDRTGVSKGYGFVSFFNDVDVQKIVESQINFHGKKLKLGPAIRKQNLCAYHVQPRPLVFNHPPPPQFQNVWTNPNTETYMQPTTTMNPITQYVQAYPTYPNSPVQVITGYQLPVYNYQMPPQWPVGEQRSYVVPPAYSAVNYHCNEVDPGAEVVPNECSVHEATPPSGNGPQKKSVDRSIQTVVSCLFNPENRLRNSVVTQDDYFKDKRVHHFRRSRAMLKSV
The experiment in a line: EMSA; only slightly affected vs wild type; 10 mM HEPES pH 7.4, 50 mM KCl, 1 mM EDTA, 0.05% Triton X-100, 5% glycerol, 0.01 mg/ml BSA, 1 mM DTT; 10 nM FAM-RNA, 40 min; temperature not stated. The following applies: protein: recombinant; tags: N-terminal GST; label: 5'-FAM. In general terms: In EMSA bound probe runs differently from free probe, usually more slowly.

The target in series [2] is T1, GST-DAZL. The experiment in a line: EMSA; 10 mM HEPES pH 7.4, 50 mM KCl, 1 mM EDTA, 0.05% Triton X-100, 5% glycerol, 0.01 mg/ml BSA, 1 mM DTT; 10 nM FAM-RNA, 40 min; temperature not stated. Particulars: protein: recombinant; tags: N-terminal GST; label: 5'-FAM.
For series [3], the target named is T1, GST-DAZL. The experiment in a line: EMSA; 3000 nM DAZL; 10 mM HEPES pH 7.4, 50 mM KCl, 1 mM EDTA, 0.05% Triton X-100, 5% glycerol, 0.01 mg/ml BSA, 1 mM DTT; 10 nM FAM-RNA, 40 min; temperature not stated. Particulars: protein: recombinant; tags: N-terminal GST; label: 5'-FAM; hairpin.
The target of series [4] is T1, GST-DAZL. Description: EMSA; 5000 nM DAZL; 10 mM HEPES pH 7.4, 50 mM KCl, 1 mM EDTA, 0.05% Triton X-100, 5% glycerol, 0.01 mg/ml BSA, 1 mM DTT; 10 nM FAM-RNA, 40 min; temperature not stated. Particulars: protein: recombinant; tags: N-terminal GST; label: 5'-FAM; hairpin.
The target in series [5] is T2, GST-RRM (DAZL RRM domain) (UniProt Q92904 40-115).
T2 sequence: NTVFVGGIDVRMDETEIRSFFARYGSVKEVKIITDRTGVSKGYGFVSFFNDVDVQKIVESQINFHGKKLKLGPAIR
Description: EMSA; 10 mM HEPES pH 7.4, 50 mM KCl, 1 mM EDTA, 0.05% Triton X-100, 5% glycerol, 0.01 mg/ml BSA, 1 mM DTT; 10 nM FAM-RNA, 40 min; temperature not stated. The following applies: protein: recombinant; tags: N-terminal GST; label: 5'-FAM; hairpin.

B1: pre-let-7c loop, second U to A in both GUU (ssRNA)
RNA: UAGAGAUACACCCUGGGAGAUAA
Consider B1, for which, in the series with GST-DAZL [1], the binding result is “binds”.

B2: pre-let-7c loop (ssRNA)
RNA: UAGAGUUACACCCUGGGAGUUAA
As to B2, the binding result in the series with GST-DAZL [2] was “binds”.

B3: pre-let-7c (structured_RNA)
RNA: GCAUCCGGGUUGAGGUAGUAGGUUGUAUGGUUUAGAGUUACACCCUGGGAGUUAACUGUACAACCUUCUAGCUUUCCUUGGAGC
B3: the binding signal came to 37.4 % shifted with GST-DAZL [3] and 41.3 % shifted with GST-DAZL [4].

B4: pre-let-7c loop, first G to A in both GUU (ssRNA)
RNA: UAGAAUUACACCCUGGGAAUUAA
For B4, the binding result with GST-DAZL [1] is “binds”.

B5: pre-miR-199a (structured_RNA)
RNA: GCCAACCCAGUGUUCAGACUACCUGUUCAGGAGGCUCUCAAUGUGUACAGUAGUCUGCACAUUGGUUAGGC
Turning to B5, the binding signal with GST-DAZL [3] worked out at 18.1 % shifted; in the series with GST-DAZL [4], 22.1 % shifted.

B6: pre-miR-185 (structured_RNA)
RNA: AGGGGGCGAGGGAUUGGAGAGAAAGGCAGUUCCUGAUGGUCCCCUCCCCAGGGGCUGGCUUUCCUCUGGUCCUUCCCUCCCA
Turning to B6, the binding result in series [5] was “no binding”.

B7: pre-let-7i (structured_RNA)
RNA: CUGGCUGAGGUAGUAGUUUGUGCUGUUGGUCGGGUUGUGACAUUGCCCGCUGUGGAGAUAACUGCGCAAGCUACUGCCUUGCUA
Consider B7, for which the binding signal came out at 37 % shifted with GST-DAZL [3] and 50.9 % shifted with GST-DAZL [4].
